In US20220089722A1 (NANTONG YICHEN BIOPHARMA, published 2022):

B1: IgFD-29(anti-CD3/EGFR) (bispecific antibody, human IgG1, kappa)
chain 1: EVQLVESGGGLVQPGGSLRLSCAASGFTFNTYAMNWVRQAPGKGLEWVARIRSKYNNYATYYADSVKDRFTISRDDSKNTLYLQMNSLRAEDTAVYYCVRHGNFGNSYVSWFAYWGQGTLVTVSSASTKGPSVFPLAPSSKSTSGGTAALGCLVKDYFPEPVTVSWNSGALTSGVHTFPAVLQSSGLYSLSSVVTVPSSSLGTQTYICNVNHKPSNTKVDKKVEPKSCDKTHTCPPCPAPPVAGPSVFLFPPKPKDTLMISRTPEVTCVVVDVSHEDPEVKFNWYVDGVEVHNAKTKPREEQYNSTYRVVSVLTVLHQDWLNGKEYKCKVSNKGLPSSIEKTISKAKGQPREPQVYTLPPCRDELTKNQVSLWCLVKGFYPSDIAVEWESNGQPENNYKTTPPVLDSDGSFFLYSKLTVDKSRWQQGNVFSCSVMHEALHNHYTQKSLSLSPGKGGSGGSGGGGSGGGGSQVQLQESGPGLVKPSETLSLTCTVSGGSVSSGDYYWTWIRQSPGKGLEWIGHIYYSGNTNYNPSLKSRLTISIDTSKTQFSLKLSSVTAADTAIYYCVRDRVTGAFDIWGQGTMVTVSS
chain 2: QAVVTQEPSLTVSPGGTVTLTCRSSTGAVTTSNYANWVQQKPDHLFRGLIGGTNKRAPGTPARFSGSLLGDKAALTISGAQPEDEAEYYCALWYSNLWVFGGGTKLTVLKRTVAAPSVFIFPPSDEQLKSGTASVVCLLNNFYPREAKVQWKVDNALQSGNSQESVTEQDSKDSTYSLSSTLTLSKADYEKHKVYACEVTHQGLSSPVTKSFNRGECDKTHTCPPCPAPPVAGPSVFLFPPKPKDTLMISRTPEVTCVVVDVSHEDPEVKFNWYVDGVEVHNAKTKPREEQYNSTYRVVSVLTVLHQDWLNGKEYKCKVSNKGLPSSIEKTISKAKGQPREPQVCTLPPSRDELTKNQVSLSCAVKGFYPSDIAVEWESNGQPENNYKTTPPVLDSDGSFFLVSKLTVDKSRWQQGNVFSCSVMHEALHNHYTQKSLSLSPGKGGSGGSGGGGSGGGGSDIQMTQSPSSLSASVGDRVTITCQASQDISNYLNWYQQKPGKAPKLLIYDASNLETGVPSRFSGSGSGTDFTFTISSLQPEDIATYFCQHFDHLPLAFGGGTKVEIK
notes: (ProA)/(CH1) = purification resin; also called IgFD-29(ProA); IgFD-29(CH1)
B2: IgFD-30(anti-CD3/EGFR) (bispecific antibody, human IgG1, kappa)
chain 1: EVQLVESGGGLVQPGGSLRLSCAASGFTFNTYAMNWVRQAPGKGLEWVARIRSKYNNYATYYADSVKDRFTISRDDSKNTLYLQMNSLRAEDTAVYYCVRHGNFGNSYVSWFAYWGQGTLVTVSSASTKGPSVFPLAPSSKSTSGGTAALGCLVKDYFPEPVTVSWNSGALTSGVHTFPAVLQSSGLYSLSSVVTVPSSSLGTQTYICNVNHKPSNTKVDKKVEPKSCDKTHTCPPCPAPPVAGPSVFLFPPKPKDTLMISRTPEVTCVVVDVSHEDPEVKFNWYVDGVEVHNAKTKPREEQYNSTYRVVSVLTVLHQDWLNGKEYKCKVSNKGLPSSIEKTISKAKGQPREPQVYTLPPCRDELTKNQVSLWCLVKGFYPSDIAVEWESNGQPENNYKTTPPVLDSDGSFFLYSKLTVDKSRWQQGNVFSCSVMHEALHNHYTQKSLSLSPGKGGSGGSGGGGSGGGGSDIQMTQSPSSLSASVGDRVTITCQASQDISNYLNWYQQKPGKAPKLLIYDASNLETGVPSRFSGSGSGTDFTFTISSLQPEDIATYFCQHFDHLPLAFGGGTKVEIK
chain 2: QAVVTQEPSLTVSPGGTVTLTCRSSTGAVTTSNYANWVQQKPDHLFRGLIGGTNKRAPGTPARFSGSLLGDKAALTISGAQPEDEAEYYCALWYSNLWVFGGGTKLTVLKRTVAAPSVFIFPPSDEQLKSGTASVVCLLNNFYPREAKVQWKVDNALQSGNSQESVTEQDSKDSTYSLSSTLTLSKADYEKHKVYACEVTHQGLSSPVTKSFNRGECDKTHTCPPCPAPPVAGPSVFLFPPKPKDTLMISRTPEVTCVVVDVSHEDPEVKFNWYVDGVEVHNAKTKPREEQYNSTYRVVSVLTVLHQDWLNGKEYKCKVSNKGLPSSIEKTISKAKGQPREPQVCTLPPSRDELTKNQVSLSCAVKGFYPSDIAVEWESNGQPENNYKTTPPVLDSDGSFFLVSKLTVDKSRWQQGNVFSCSVMHEALHNHYTQKSLSLSPGKGGSGGSGGGGSGGGGSQVQLQESGPGLVKPSETLSLTCTVSGGSVSSGDYYWTWIRQSPGKGLEWIGHIYYSGNTNYNPSLKSRLTISIDTSKTQFSLKLSSVTAADTAIYYCVRDRVTGAFDIWGQGTMVTVSS
notes: (ProA)/(CH1) = purification resin; also called IgFD-30(ProA); IgFD-30(CH1)
B3: IgFD-31(anti-CD3/EGFR) (bispecific antibody)
chain 1: EVQLVESGGGLVQPGGSLRLSCAASGFTFNTYAMNWVRQAPGKGLEWVARIRSKYNNYATYYADSVKDRFTISRDDSKNTLYLQMNSLRAEDTAVYYCVRHGNFGNSYVSWFAYWGQGTLVTVSSASTKGPSVFPLAPSSKSTSGGTAALGCLVKDYFPEPVTVSWNSGALTSGVHTFPAVLQSSGLYSLSSVVTVPSSSLGTQTYICNVNHKPSNTKVDKKVEPKSCGGSGAKLAALKAKLAALKGGGGSDKTHTCPPCPAPPVAGPSVFLFPPKPKDTLMISRTPEVTCVVVDVSHEDPEVKFNWYVDGVEVHNAKTKPREEQYNSTYRVVSVLTVLHQDWLNGKEYKCKVSNKGLPSSIEKTISKAKGQPREPQVYTLPPSRDELTKNQVSLTCLVKGFYPSDIAVEWESNGQPENNYKTTPPVLDSDGSFFLYSKLTVDKSRWQQGNVFSCSVMHEALHNHYTQKSLSLSPGK
chain 2: QAVVTQEPSLTVSPGGTVTLTCRSSTGAVTTSNYANWVQQKPDHLFRGLIGGTNKRAPGTPARFSGSLLGDKAALTISGAQPEDEAEYYCALWYSNLWVFGGGTKLTVLKRTVAAPSVFIFPPSDEQLKSGTASVVCLLNNFYPREAKVQWKVDNALQSGNSQESVTEQDSKDSTYSLSSTLTLSKADYEKHKVYACEVTHQGLSSPVTKSFNRGECGGGGSELAALEAELAALEAGGSGDKTHTCPPCPAPPVAGPSVFLFPPKPKDTLMISRTPEVTCVVVDVSHEDPEVKFNWYVDGVEVHNAKTKPREEQYNSTYRVVSVLTVLHQDWLNGKEYKCKVSNKGLPSSIEKTISKAKGQPREPQVYTLPPSRDELTKNQVSLTCLVKGFYPSDIAVEWESNGQPENNYKTTPPVLDSDGSFFLYSKLTVDKSRWQQGNVFSCSVMHEALHNHYTQKSLSLSPGKGGSGGSGGGGSGGGGSDIQMTQSPSSLSASVGDRVTITCQASQDISNYLNWYQQKPGKAPKLLIYDASNLETGVPSRFSGSGSGTDFTFTISSLQPEDIATYFCQHFDHLPLAFGGGTKVEIKGGGGSGGGGSGGGGSQVQLQESGPGLVKPSETLSLTCTVSGGSVSSGDYYWTWIRQSPGKGLEWIGHIYYSGNTNYNPSLKSRLTISIDTSKTQFSLKLSSVTAADTAIYYCVRDRVTGAFDIWGQGTMVTVSS
B4: IgFD-28(anti-CD3/EGFR) (bispecific antibody, human IgG1, kappa)
chain 1: EVQLVESGGGLVQPGGSLRLSCAASGFTFNTYAMNWVRQAPGKGLEWVARIRSKYNNYATYYADSVKDRFTISRDDSKNTLYLQMNSLRAEDTAVYYCVRHGNFGNSYVSWFAYWGQGTLVTVSSASTKGPSVFPLAPSSKSTSGGTAALGCLVKDYFPEPVTVSWNSGALTSGVHTFPAVLQSSGLYSLSSVVTVPSSSLGTQTYICNVNHKPSNTKVDKKVEPKSCDKTHTCPPCPAPPVAGPSVFLFPPKPKDTLMISRTPEVTCVVVDVSHEDPEVKFNWYVDGVEVHNAKTKPREEQYNSTYRVVSVLTVLHQDWLNGKEYKCKVSNKGLPSSIEKTISKAKGQPREPQVYTLPPCRDELTKNQVSLWCLVKGFYPSDIAVEWESNGQPENNYKTTPPVLDSDGSFFLYSKLTVDKSRWQQGNVFSCSVMHEALHNHYTQKSLSLSPGK
chain 2: QAVVTQEPSLTVSPGGTVTLTCRSSTGAVTTSNYANWVQQKPDHLFRGLIGGTNKRAPGTPARFSGSLLGDKAALTISGAQPEDEAEYYCALWYSNLWVFGGGTKLEIKRTVAAPSVFIFPPSDEQLKSGTASVVCLLNNFYPREAKVQWKVDNALQSGNSQESVTEQDSKDSTYSLSSTLTLSKADYEKHKVYACEVTHQGLSSPVTKSFNRGECDKTHTCPPCPAPPVAGPSVFLFPPKPKDTLMISRTPEVTCVVVDVSHEDPEVKFNWYVDGVEVHNAKTKPREEQYNSTYRVVSVLTVLHQDWLNGKEYKCKVSNKGLPSSIEKTISKAKGQPREPQVCTLPPSRDELTKNQVSLSCAVKGFYPSDIAVEWESNGQPENNYKTTPPVLDSDGSFFLVSKLTVDKSRWQQGNVFSCSVMHEALHNHYTQKSLSLSPGKGGSGGSGGGGSGGGGSDIQMTQSPSSLSASVGDRVTITCQASQDISNYLNWYQQKPGKAPKLLIYDASNLETGVPSRFSGSGSGTDFTFTISSLQPEDIATYFCQHFDHLPLAFGGGTKVEIKGGGGSGGGGSGGGGSQVQLQESGPGLVKPSETLSLTCTVSGGSVSSGDYYWTWIRQSPGKGLEWIGHIYYSGNTNYNPSLKSRLTISIDTSKTQFSLKLSSVTAADTAIYYCVRDRVTGAFDIWGQGTMVTVSS
notes: also called IgFD-28(ProA); IgFD-28(CH1)

Experiments:
EGFR on F98-EGFR cells [1] = target: T1, EGFR on F98-EGFR cells (UniProt P00533 25-1210, limits assumed); test: cell-based or functional assay
EGFR on F98-EGFR cells [2] = target: T1, EGFR on F98-EGFR cells; test: flow cytometry on F98-EGFR cells; protein purified on CH1 resin
[3] = target: T2, CD3 on T cells (Jurkat T cells; PBMC-T cells); test: flow cytometry on Jurkat T cells; protein purified on CH1 resin
T2 construct: whole, on cells; the target is inferred from the anti-CD3 arm of the constructs
T2 sequence (P07766 23-207): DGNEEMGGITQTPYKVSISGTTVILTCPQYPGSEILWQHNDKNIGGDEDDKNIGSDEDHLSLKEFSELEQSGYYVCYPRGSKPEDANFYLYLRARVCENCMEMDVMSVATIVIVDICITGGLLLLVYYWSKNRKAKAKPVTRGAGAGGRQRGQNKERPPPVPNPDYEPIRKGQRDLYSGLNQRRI

EGFR on F98-EGFR cells [4] = target: T1, EGFR on F98-EGFR cells; test: flow cytometry on F98-EGFR cells; protein purified on Protein A resin
[5] = target: T2, CD3 on T cells (Jurkat T cells; PBMC-T …); test: flow cytometry on Jurkat T cells; protein purified on Protein A resin
EGFR on F98-EGFR cells [6] = target: T1, EGFR on F98-EGFR cells; test: flow cytometry on F98-EGFR cells
Experimental: F98-EGFR cells (a DMEM containing 10% FBS, 200 μg/ml G418) were cultured. 2×10⁵ cells were washed by precooled PBS for 3 times, and blocked by 2% FBS (soluble to PBS). IgFD-8, IgFD-9, IgFD-10, IgFD-11, IgFD-18, IgFD-19, IgFD-25, IgFD-26 or IgFD-31 (aEGFR expressed in a laboratory as a control) was added and incubated for 2 h at 4° C. (cells were gently mixed during incubation), unbounded antibodies were washed by 2% FBS (soluble to PBS), and then the remaining cells were incubated by FITC anti-human IgGFc(KPL, Inc., MD) for 1 h at 4° C., and washed by 2% FBS (soluble to PBS) for flow cytometry analysis. As shown in FIG. 7 and Table 4, the anti-CD3/anti-EGFR heterodimers in different forms of fusion could bind to EGFR on F98-EGFR cells, and there was no significant difference in the binding capacity of different heterodimers to F98-EGFR.

[7] = target: T2, CD3 on T cells (Jurkat T cells; PBMC-T …); test: flow cytometry on Jurkat T cells
Experimental: Jurkat cells (a medium containing 10% FBS) were cultured. 2×10⁵ cells were washed by precooled PBS for 3 times, and blocked by 2% FBS (soluble to PBS). Purified IgFD-11, IgFD-8, IgFD-25, IgFD-26, IgFD-31 or IgFD-36 (aEGFR expressed in a laboratory as a control) were added and incubated for 2 h at 4° C. (cells were gently mixed during incubation), followed by 2% FBS(in PBS) wash. The cells were incubated by FITC anti-human IgGFc (KPL, Inc., MD) for 1 h at 4° C. and subjected to flow cytometry analysis after washing with 2% FBS(in PBS).

Row | Binder | Promotion for the specific killing effect of PBMCs on target cells by heterodimers (EC50, pM); F98-EGFR cells, LDH assay; IgFD-29(CH1) (EGFR on F98-EGFR cells [1]) [pM] | Promotion for the specific killing effect of PBMCs on target cells by heterodimers (EC50, pM); F98-EGFR cells, LDH assay; IgFD-29(ProA) (EGFR on F98-EGFR cells [1]) [pM] | Kd (EGFR on F98-EGFR cells [2]) [nM] | Kd [3] [nM] | Kd (EGFR on F98-EGFR cells [4]) [nM] | Kd [5] [nM] | Promotion for the specific killing effect of PBMCs on target cells by heterodimers (EC50, pM); F98-EGFR cells, LDH assay; IgFD-30(CH1) (EGFR on F98-EGFR cells [1]) [pM] | Promotion for the specific killing effect of PBMCs on target cells by heterodimers (EC50, pM); F98-EGFR cells, LDH assay; IgFD-30(ProA) (EGFR on F98-EGFR cells [1]) [pM] | Kd (EGFR on F98-EGFR cells [6]) [nM] | Kd [7] [nM] | Promotion for the specific killing effect of PBMCs on target cells by heterodimers (EC50, pM); F98-EGFR cells, LDH assay; IgFD-28(CH1) (EGFR on F98-EGFR cells [1]) [pM] | Promotion for the specific killing effect of PBMCs on target cells by heterodimers (EC50, pM); F98-EGFR cells, LDH assay; IgFD-28(ProA) (EGFR on F98-EGFR cells [1]) [pM]
1 | B1 | 338 | 293 | 78 | 6.82 | 77.5 | 7.42 |  |  |  |  |  | 
2 | B2 |  |  | 86.3 | 7.35 | 131 | 6.74 | 435 | 651 |  |  |  | 
3 | B3 |  |  |  |  |  |  |  |  | 5.47 | 4.16 |  | 
4 | B4 |  |  | 2.86 | 10.4 | 3.81 | 12.2 |  |  |  |  | 11.4 | 14.7
